From patent publication US20260184782A1 (published 2026) come the findings set out here.

B1: hTIGIT (receptor)
chain: MMTGTIETTGNISAEKGGSIILQCHLSSTTAQVTQVNWEQQDQLLAICNADLGWHISPSFKDRVAPGPGLGLTLQSLTVNDTGEYFCIYHTYPDGTYTGRIFLEVLESSVAEHGARFQIP
For B1, the Kd in the assay with TIGIT55-01 was found to be 15.9 nM; in the assay with TIGIT55-11 it was 327 nM; with TIGIT55-13 it was 112 nM; with TIGIT55-14, 139 nM; in the assay with TIGIT55-06 it was 153 nM; with TIGIT55-05, 97.6 nM.

In general, Kd refers to a measure of binding affinity in units of concentration. A high value points to a looser complex.
